Experimental data from patent publication US20130217572A1, “SPECIFIC DELIVERY OF AGROCHEMICALS” (VRIJE UNIVERSITEIT BRUSSEL, priority 2010, published 2013).

Test system: potato leaf surface
Assay: VHH binding to leaf discs (microscopy)
Design: species or system potato (variety Désirée)
Details: 5 μg/ml in PBS, anti-histidine Alexa-488 detection
Experimental: VHH binding to non-fixed leaf discs of potato (variety Désirée), black nightshade, grass, wheat or azalea was investigated. For comparison, binding of CBM3a to non-fixed leaf discs of potato (variety Désirée) was analyzed in parallel. Leaf discs were prepared by punching a fresh potato leaf with a 5 mm belt hole puncher tool. Leaf discs were put immediately in wells of a 96-well plate containing 200 μl per well 5% MPBS or PBS, and incubated for 30 minutes. Leaf discs were transferred to solutions containing 5 μg/ml VHH antibody fragment, respectively 5 μg/ml CBM3a in 2% MPBS or PBS and incubated for 60-90 minutes. Unbound VHH or CBM3a proteins were removed by washing three times with 2% MPBS or PBS. Bound VHH or CBM3a proteins were detected with incubation with monoclonal mouse anti-histidine antibodies directly conjugated with Alexa-488 fluorescent dye (Abd Serotec) in 1% MPBS for 1 hour. Unbound antibodies were removed by washing three times with PBS. Leaf discs were put on glass slides, covered with cover slips, and analyzed by microscopy or on a macrozoom microscope system (Nikon) or a SP5 confocal microscope system (Leica).

B1: VHH 3E6 (VHH)
VHH: QVQLQESGGGLVQPGGTLSLSCAASGFNVRWYGMGWFRQAPGKEREGVACISALQETTAYADSVKGRFTLSRDNPKNTLSLQMNNLQPEDTGVYYCATTDCDDSSRMTYTSYLGQGTQVTVSS
notes: also called Monovalent VHH 3E6
B1 was tested, and the “binding to native potato leaf surface” value was “binding leaf surface, stomata, glandular trichomes, and leaf hairs” and the “binding to native potato leaf surface” value (listed as 3E6) was “clearly binding to trichomes, stomata and cuticle”.
